Test results as given in PMC12795458.

Biological target: RipA fused to the Nanoluciferase large subunit (CEPlac-lgbit-ripA)
Assay: split-luciferase assay
Settings: in S. pneumoniae cells, signal relative to control strains R5380 and R5570, read off a plot

DnaN fused to the Nanoluciferase small subunit (CEPIIlac-smBit-dnaN) (from UniProt O06672) Y249N
response (relative fold induction) (strain R5568 vs R5381, parent: est. 13): 4.8

DnaN fused to the Nanoluciferase small subunit (CEPIIlac-smBit-dnaN) (from UniProt O06672) H183P
response (relative fold induction) (strain R5566 vs R5381, parent: est. 22): 4.8

DnaN fused to the Nanoluciferase small subunit (CEPIIlac-smBit-dnaN) (from UniProt O06672) L185R
response (relative fold induction) (strain R5567 vs R5381, parent: est. 27): 5.5
